Numbering of substitutions follows the chain as printed.
B1: PD-1 variant polypeptide, clone S5.1 (receptor)
chain: NPPTFSPALLVVTEGDNATFTCSFSNTSESFVLNWYRMSPSNQTDKLAAFPEDRGQLGQDSRFRVTQLPNGRDFHMSVVRARRSDSGTYLCSAIVLAPKIQIKESLRVELRVTERRAE
B2: PD-1 variant polypeptide, clone S5.1c (receptor)
chain: B1 chain with L57P, T66I, S84N, S92G, V95S, I100V, V108A
B3: PD-1 variant polypeptide, clone S5.2i (receptor)
chain: B1 chain with T13A, G55S, L57P, S61R, N70S, S84N, S92G, V95F, K99R, V108A
B4: PD-1 variant polypeptide, clone S5.7 (receptor)
chain: B1 chain with V95L
B5: PD-1 variant polypeptide, clone S5.2q (receptor)
chain: B1 chain with N1S, F5L, A18V, L57P, Q59R, S84N, S92G, V95S, I100V, V108A
B6: PD-1 variant polypeptide, clone S5.1n (receptor)
chain: B1 chain with G55S, L57P, R83G, S84D, S92G, V95S, I100V
B7: PD-1 variant polypeptide, clone S5.2d (receptor)
chain: NPPTFSPALLVVTEGDNATFTCSFSNTSESFVLNWYRMSPSDQTDKLAAFPEDRSRPGQDSRFRVTQLPNGRDFHMSVVGARRNDSGTYLCGAISLAPKVQIRESLRAELRVTERRAE
B8: PD-1 variant polypeptide, clone S5.1e (receptor)
chain: B7 chain with D42N, R56Q, G80R, N84S, R103K, T113I
B9: PD-1 variant polypeptide, clone S5.1q (receptor)
chain: B7 chain with D42N, R56Q, P57L, G80R, A108V
B10: PD-1 variant polypeptide, clone S6.12.9 (receptor)
chain: B1 chain with K99R
B11: PD-1 variant polypeptide, clone S6.8.3 (receptor)
chain: B1 chain with D60A, V95L, K99R, K103R
B12: PD-1 variant polypeptide, clone S5.2s (receptor)
chain: B7 chain with D42S, R56Q, G80R, N84S, A93V, R103K, T113I
B13: PD-1 variant polypeptide, clone S5.4 (receptor)
chain: B1 chain with L57P, Q59R, H75R, V95L, R107G, V108A, R115K, R116G
B14: PD-1 variant polypeptide, clone S5.1p (receptor)
chain: B7 chain with N1D, D42N, R56Q, G80R, S95L, K99R, V100I, R107G, R115K, R116G
B15: PD-1 variant polypeptide, clones S5.1j, S5.1o (receptor)
chain: B7 chain with D42N, R56Q, G80R, R103K, A108V
B16: PD-1 variant polypeptide, clone S5.1i (receptor)
chain: B1 chain with G55S, L57P, H75R, V95S, I100V, V108A
B17: PD-1 variant polypeptide, clone S6.12.6 (receptor, not shown: large carriers)
chain: B1 chain with M38I, V95L, K99R, K103R, R107G, R115K
B18: PD-1 variant polypeptide, clone S5.1f (receptor)
chain: B7 chain with M38V, D42N, Q67R, N84S, R103K
B19: PD-1 variant polypeptide, clone S5.1k (receptor)
chain: B7 chain with N1D, D42N, R56Q, G80R, N84D, V100I, R103K
B20: PD-1 variant polypeptide, clone S5.1g (receptor)
chain: B1 chain with T27A, N42D, S84N, S92G, V95S, V108A

Legend:
[1] = target: T1, human PD-L1-Fc chimeric protein (human, UniProt Q9NZQ7 19-238); assay: flow cytometry of yeast-displayed clone with soluble PD-L1-Fc (S5.1 tested at 0.5 nM only, see paragraph 221)
T1 construct: extracellular domain; Recombinant protein; also called soluble PD-L1-Fc; not shown: Fc region of human IgG1, fused at the C-terminus
Protocol: (§1) Binding was allowed to proceed for 3 hours at room temperature at which time yeast were pelleted, washed twice to remove unbound PD-L1-Fc, and stained with a fluorescently labeled secondary antibody to detect the Fc of bound PD-L1. Secondary labeling was performed for 30 minutes on ice, after which yeast were pelleted and washed as described. Yeast samples were then analyzed on a flow cytometer to quantify PD-L1-Fc binding.
(§2) FIG. 4 provides a graph of the FACS data.

[2] = target: T1, human PD-L1-Fc chimeric protein; assay: yeast display, clone sequenced from the pool after five FACS sorts on PD-L1-Fc; measured as a pool, not singly
Protocol: In these sorts, yeast were incubated at room temperature in phosphate-buffered saline with 1 mg/ml BSA (PBSA) and with the following nominal concentrations of PD-L1-Fc: for sort 1, 250 nM; sort 2, 20 nM; sort 3, 1 nM; sort 4, 0.1 nM; sort 5, 0.1 nM. PD-L1 Fc refers to a human PD-L1-Fc chimeric protein. This recombinant protein contains the extracellular domain of human PD-L1 fused to the Fc region of human IgG1 at the C-terminus. After incubation with PD-L1-Fc, yeast were pelleted, washed, and resuspended in PBSA with chicken anti-cMYC for 1 hour at 4° C. After primary antibody incubation, yeast were once again washed and secondary labeling was performed on ice for 30 minutes using PBSA with goat anti-chicken Alexa Fluor 555 and goat anti-human IgG Alexa Fluor 488. Each sort was conducted such that the 1-3% of clones with the highest PD-L1 binding/cMyc expression ration were selected, thereby enriching the library for clones with the highest affinity. In the first round, 1×10⁸ cells were screened, and in subsequent rounds a minimum of ten-fold the number of clones collected in the prior sort round were screened to ensure adequate sampling of diversity.
Samples were analyzed using a FACScalibur flow cytometer and data was analyzed using FlowJo software.

[3] = target: T1, human PD-L1-Fc chimeric protein; assay: flow cytometry of yeast-displayed clone, FIG. 2 (0.5 nM PD-L1-Fc) and FIG. 3 (5 nM, also bound strongly)
Protocol: as §1, §2

[4] = target: T1, human PD-L1-Fc chimeric protein; assay: flow cytometry of yeast-displayed clone with soluble PD-L1-Fc at 5 nM or 0.5 nM
Protocol: as §1, §2

T1 sequence (Q9NZQ7 19-238, change not shown): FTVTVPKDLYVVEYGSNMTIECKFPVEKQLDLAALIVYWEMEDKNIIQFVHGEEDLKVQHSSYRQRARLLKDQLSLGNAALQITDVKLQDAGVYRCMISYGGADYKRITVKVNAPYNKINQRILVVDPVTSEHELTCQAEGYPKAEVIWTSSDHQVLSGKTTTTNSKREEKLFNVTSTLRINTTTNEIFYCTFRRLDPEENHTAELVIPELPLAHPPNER

Binder	binding result [2]	further results
B1		binding result [1]: binds
B2	binds	
B3	binds	
B4		binding result [3]: binds
B5	binds	
B6	binds	
B7	binds	
B8	binds	
B9	binds	
B10		binding result [3]: binds
B11		binding result [3]: binds
B12	binds	
B13		binding result [4]: binds
B14	binds	
B15	binds	
B16	binds	
B17		binding result [3]: binds
B18	binds	
B19	binds	
B20	binds	

Reference: patent publication US20180125934A1 (Stanford University, published 2018)
